Source: patent US20090048117

Columns and labels:
[1] = test system: T1, GST-NIP45 fusion protein (bacterially expressed, full length NIP45)
T1 sequence: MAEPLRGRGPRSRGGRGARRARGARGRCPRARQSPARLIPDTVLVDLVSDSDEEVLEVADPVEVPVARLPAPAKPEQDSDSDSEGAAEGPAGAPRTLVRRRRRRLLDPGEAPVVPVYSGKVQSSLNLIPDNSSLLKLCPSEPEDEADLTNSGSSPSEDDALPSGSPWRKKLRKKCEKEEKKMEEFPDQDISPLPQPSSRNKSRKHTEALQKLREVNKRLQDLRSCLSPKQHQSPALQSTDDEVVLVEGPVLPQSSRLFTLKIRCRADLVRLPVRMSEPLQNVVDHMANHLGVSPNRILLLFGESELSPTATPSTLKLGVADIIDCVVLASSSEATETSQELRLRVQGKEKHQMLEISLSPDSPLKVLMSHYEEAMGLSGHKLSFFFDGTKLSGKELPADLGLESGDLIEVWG

[2] = test system: Histone H3

Substance	in vitro methylation assay with affinity purified PRMTs and GST-NIP45 [1]	in vitro methylation assay with recombinant proteins [2]
Flag epitope tagged CARM1 immunoprecipitated from 293 cell extracts	In this assay, only PRMT1 was capable of methylating NIP45	–
Flag epitope tagged PRMT5 immunoprecipitated from 293 cell extracts	In this assay, only PRMT1 was capable of methylating NIP45	–
Flag epitope tagged PRMT3 immunoprecipitated from 293 cell extracts	In this assay, only PRMT1 was capable of methylating NIP45	–
GST-CARM1	–	CARM1 did methylate histone H3 (lane 7)
